Article PMC11736007

Target: Orai1β-eGFP (UniProt Q96D31)
Assay: co-IP; Orai1-KO MCF7 cells co-transfected with an Orai1 variant and mCherry-SPCA2; lysis in 1% IGEPAL CA-630 buffer pH 8; immunoprecipitation with anti-Orai1 antibody and protein A-agarose at 4 °C overnight; Western blot with anti-mCherry; signal normalised to input and to immunoprecipitated Orai1

Chain of UniProt Q96D31 (Q96D31 64-301): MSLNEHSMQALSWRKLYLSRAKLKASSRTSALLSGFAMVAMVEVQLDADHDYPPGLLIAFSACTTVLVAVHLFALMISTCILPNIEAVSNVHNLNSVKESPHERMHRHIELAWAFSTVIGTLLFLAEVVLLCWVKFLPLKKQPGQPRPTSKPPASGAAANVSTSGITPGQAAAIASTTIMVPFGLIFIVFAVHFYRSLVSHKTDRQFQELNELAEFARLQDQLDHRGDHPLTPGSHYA

percent decrease of co-precipitated SPCA2 against Orai1α: 63%
B1: mCherry-SPCA2 (natural protein)
chain: MVEGRVSEFLKKLGFSGGGRQYQALEKDEEEALIDEQSELKAIEKEKKVTALPPKEACKCQKEDLARAFCVDLHTGLSEFSVTQRRLAHGWNEFVADNSEPVWKKYLDQFKNPLILLLLGSALVSVLTKEYEDAVSIATAVLVVVTVAFIQEYRSEKSLEELTKLVPPECNCLREGKLQHLLARELVPGDVVSLSIGDRIPADIRLTEVTDLLVDESSFTGEAEPCSKTDSPLTGGGDLTTLSNIVFMGTLVQYGRGQGVVIGTGESSQFGEVFKMMQAEETPKTPLQKSMDRLGKQLTLFSFGIIGLIMLIGWSQGKQLLSMFTIGVSLAVAAIPEGLPIVVMVTLVLGVLRMAKKRVIVKKLPIVETLGCCSVLCSDKTGTLTANEMTVTQLVTSDGLRAEVSGVGYDGQGTVCLLPSKEVIKEFSNVSVGKLVEAGCVANNAVIRKNAVMGQPTEGALMALAMKMDLSDIKNSYIRKKEIPFSSEQKWMAVKCSLKTEDQEDIYFMKGALEEVIRYCTMYNNGGIPLPLTPQQRSFCLQEEKRMGSLGLRVLALASGPELGRLTFLGLVGIIDPPRVGVKEAVQVLSESGVSVKMITGDALETALAIGRNIGLCNGKLQAMSGEEVDSVEKGELADRVGKVSVFFRTSPKHKLKIIKALQESGAIVAMTGDGVNDAVALKSADIGIAMGQTGTDVSKEAANMILVDDDFSAIMNAVEEGKGIFYNIKNFVRFQLSTSISALSLITLSTVFNLPSPLNAMQILWINIIMDGPPAQSLGVEPVDKDAFRQPPRSVRDTILSRALILKILMSAAIIISGTLFIFWKEMPEDRASTPRTTTMTFTCFVFFDLFNALTCRSQTKLIFEIGFLRNHMFLYSVLGSILGQLAVIYIPPLQRVFQTENLGALDLLFLTGLASSVFILSELLKLCEKYCCSPKRVQMHPEDV
